According to publication PMC5253658, “SCIMP is a transmembrane non-TIR TLR adaptor that promotes proinflammatory cytokine production from macrophages” (Nature Communications, 2017):

T1: His-TLR4-TIR (cytoplasmic TIR domain of mouse TLR4, amino acids 670-835) (mouse, UniProt Q9QUK6 670-835)
T1 construct: TLR4, mouse, cytoplasmic TIR domain, amino acids 670-835; codon-optimized gene from Genscript; subcloned into pET28a; also called His-tagged TLR4-TIR domain; recombinant TLR4-TIR; source: E. coli, purified (Ni-NTA)
T1 sequence (looked up): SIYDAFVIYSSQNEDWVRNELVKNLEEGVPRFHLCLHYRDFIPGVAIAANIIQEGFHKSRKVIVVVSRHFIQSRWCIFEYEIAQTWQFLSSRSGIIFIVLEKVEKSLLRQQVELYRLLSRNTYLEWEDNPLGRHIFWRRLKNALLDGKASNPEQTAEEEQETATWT


How the values were obtained:
[1] = target: T1, His-TLR4-TIR (cytoplasmic TIR domain of …); assay: pull-down; GST-SCIMP (T1, T2 or T1 mutants) as bait, recombinant His-TLR4-TIR as prey; immunoblot against the His tag; settings: both partners purified
[2] = target: T1, His-TLR4-TIR (cytoplasmic TIR domain of …); assay: other fluorescence titration; BODIPY FL-labelled SCIMP-T1 titrated with unlabelled TLR4-TIR; 25 °C, 30 mM Tris pH 7.4, 150 mM NaCl, 1 mM dithiothreitol; curve fit (Grafit); settings: both partners purified

Row | binding result [1] | Kd [2] [nM] | Binder
1 | binds |  | GST-SCIMP-T1 (entire intracellular region of murine SCIMP, amino acids 29-150) (domain or fragment, subcloned into pGEX6p-1; also called SCIMP-GST; source: E. coli, purified (glutathione-Sepharose beads)) not shown
2 |  | 212 | fluorescently labelled recombinant SCIMP-T1 (BODIPY FL) (domain or fragment, labelled with BODIPY FL Iodoacetamide, SCIMP, mouse, T1, amino acids 29-150; also called labelled SCIMP; fluorescently labelled SCIMP-T1; source: E. coli, purified) not shown
3 | binds |  | GST-SCIMP-T2 (C terminal region of murine SCIMP, amino acids 93-150) (domain or fragment, SCIMP, mouse, C terminal region, amino acids 93-150; lacks the PRD; subcloned into pGEX6p-1; source: E. coli, purified (glutathione-Sepharose beads)) not shown
4 | binds |  | GST-SCIMP-T1 Y96F (domain or fragment, SCIMP, mouse, T1, amino acids 29-150, Y96F; also called (unphosphorylated) Y96F SCIMP mutant; source: E. coli, purified (glutathione-Sepharose beads)) not shown
